The target of the assay is T1, DEN4-80E (Dengue virus type 4, strain H241 …, UniProt Q58HT7).
T1 construct: Envelope (E) protein of dengue virus serotype 4, strain H241, truncated form: 80% of the N-terminal of the E protein; also called DEN-80E of DENV4; truncated envelope protein of DENV4; source: recombinant E protein, component of the tetravalent dengue subunit vaccine V180 (Merck and Co. Inc.)
The assay can be described thus: BLI; Octet RED96 epitope binning: first mAb (30 ug/ml) captured on protein A sensor for 600 s, blocking antibody (200 ug/ml) 300 s, DEN4-80E loaded at 30 ug/ml for 300 s, then second mAb (d462, 5H2, d559, d182). Particulars: both partners purified. On the technique in general: BLI is a label-free optical method that tracks binding on a fibre tip over time.

T1 sequence (Q58HT7 whole entry, looked up, the tested form may be a part): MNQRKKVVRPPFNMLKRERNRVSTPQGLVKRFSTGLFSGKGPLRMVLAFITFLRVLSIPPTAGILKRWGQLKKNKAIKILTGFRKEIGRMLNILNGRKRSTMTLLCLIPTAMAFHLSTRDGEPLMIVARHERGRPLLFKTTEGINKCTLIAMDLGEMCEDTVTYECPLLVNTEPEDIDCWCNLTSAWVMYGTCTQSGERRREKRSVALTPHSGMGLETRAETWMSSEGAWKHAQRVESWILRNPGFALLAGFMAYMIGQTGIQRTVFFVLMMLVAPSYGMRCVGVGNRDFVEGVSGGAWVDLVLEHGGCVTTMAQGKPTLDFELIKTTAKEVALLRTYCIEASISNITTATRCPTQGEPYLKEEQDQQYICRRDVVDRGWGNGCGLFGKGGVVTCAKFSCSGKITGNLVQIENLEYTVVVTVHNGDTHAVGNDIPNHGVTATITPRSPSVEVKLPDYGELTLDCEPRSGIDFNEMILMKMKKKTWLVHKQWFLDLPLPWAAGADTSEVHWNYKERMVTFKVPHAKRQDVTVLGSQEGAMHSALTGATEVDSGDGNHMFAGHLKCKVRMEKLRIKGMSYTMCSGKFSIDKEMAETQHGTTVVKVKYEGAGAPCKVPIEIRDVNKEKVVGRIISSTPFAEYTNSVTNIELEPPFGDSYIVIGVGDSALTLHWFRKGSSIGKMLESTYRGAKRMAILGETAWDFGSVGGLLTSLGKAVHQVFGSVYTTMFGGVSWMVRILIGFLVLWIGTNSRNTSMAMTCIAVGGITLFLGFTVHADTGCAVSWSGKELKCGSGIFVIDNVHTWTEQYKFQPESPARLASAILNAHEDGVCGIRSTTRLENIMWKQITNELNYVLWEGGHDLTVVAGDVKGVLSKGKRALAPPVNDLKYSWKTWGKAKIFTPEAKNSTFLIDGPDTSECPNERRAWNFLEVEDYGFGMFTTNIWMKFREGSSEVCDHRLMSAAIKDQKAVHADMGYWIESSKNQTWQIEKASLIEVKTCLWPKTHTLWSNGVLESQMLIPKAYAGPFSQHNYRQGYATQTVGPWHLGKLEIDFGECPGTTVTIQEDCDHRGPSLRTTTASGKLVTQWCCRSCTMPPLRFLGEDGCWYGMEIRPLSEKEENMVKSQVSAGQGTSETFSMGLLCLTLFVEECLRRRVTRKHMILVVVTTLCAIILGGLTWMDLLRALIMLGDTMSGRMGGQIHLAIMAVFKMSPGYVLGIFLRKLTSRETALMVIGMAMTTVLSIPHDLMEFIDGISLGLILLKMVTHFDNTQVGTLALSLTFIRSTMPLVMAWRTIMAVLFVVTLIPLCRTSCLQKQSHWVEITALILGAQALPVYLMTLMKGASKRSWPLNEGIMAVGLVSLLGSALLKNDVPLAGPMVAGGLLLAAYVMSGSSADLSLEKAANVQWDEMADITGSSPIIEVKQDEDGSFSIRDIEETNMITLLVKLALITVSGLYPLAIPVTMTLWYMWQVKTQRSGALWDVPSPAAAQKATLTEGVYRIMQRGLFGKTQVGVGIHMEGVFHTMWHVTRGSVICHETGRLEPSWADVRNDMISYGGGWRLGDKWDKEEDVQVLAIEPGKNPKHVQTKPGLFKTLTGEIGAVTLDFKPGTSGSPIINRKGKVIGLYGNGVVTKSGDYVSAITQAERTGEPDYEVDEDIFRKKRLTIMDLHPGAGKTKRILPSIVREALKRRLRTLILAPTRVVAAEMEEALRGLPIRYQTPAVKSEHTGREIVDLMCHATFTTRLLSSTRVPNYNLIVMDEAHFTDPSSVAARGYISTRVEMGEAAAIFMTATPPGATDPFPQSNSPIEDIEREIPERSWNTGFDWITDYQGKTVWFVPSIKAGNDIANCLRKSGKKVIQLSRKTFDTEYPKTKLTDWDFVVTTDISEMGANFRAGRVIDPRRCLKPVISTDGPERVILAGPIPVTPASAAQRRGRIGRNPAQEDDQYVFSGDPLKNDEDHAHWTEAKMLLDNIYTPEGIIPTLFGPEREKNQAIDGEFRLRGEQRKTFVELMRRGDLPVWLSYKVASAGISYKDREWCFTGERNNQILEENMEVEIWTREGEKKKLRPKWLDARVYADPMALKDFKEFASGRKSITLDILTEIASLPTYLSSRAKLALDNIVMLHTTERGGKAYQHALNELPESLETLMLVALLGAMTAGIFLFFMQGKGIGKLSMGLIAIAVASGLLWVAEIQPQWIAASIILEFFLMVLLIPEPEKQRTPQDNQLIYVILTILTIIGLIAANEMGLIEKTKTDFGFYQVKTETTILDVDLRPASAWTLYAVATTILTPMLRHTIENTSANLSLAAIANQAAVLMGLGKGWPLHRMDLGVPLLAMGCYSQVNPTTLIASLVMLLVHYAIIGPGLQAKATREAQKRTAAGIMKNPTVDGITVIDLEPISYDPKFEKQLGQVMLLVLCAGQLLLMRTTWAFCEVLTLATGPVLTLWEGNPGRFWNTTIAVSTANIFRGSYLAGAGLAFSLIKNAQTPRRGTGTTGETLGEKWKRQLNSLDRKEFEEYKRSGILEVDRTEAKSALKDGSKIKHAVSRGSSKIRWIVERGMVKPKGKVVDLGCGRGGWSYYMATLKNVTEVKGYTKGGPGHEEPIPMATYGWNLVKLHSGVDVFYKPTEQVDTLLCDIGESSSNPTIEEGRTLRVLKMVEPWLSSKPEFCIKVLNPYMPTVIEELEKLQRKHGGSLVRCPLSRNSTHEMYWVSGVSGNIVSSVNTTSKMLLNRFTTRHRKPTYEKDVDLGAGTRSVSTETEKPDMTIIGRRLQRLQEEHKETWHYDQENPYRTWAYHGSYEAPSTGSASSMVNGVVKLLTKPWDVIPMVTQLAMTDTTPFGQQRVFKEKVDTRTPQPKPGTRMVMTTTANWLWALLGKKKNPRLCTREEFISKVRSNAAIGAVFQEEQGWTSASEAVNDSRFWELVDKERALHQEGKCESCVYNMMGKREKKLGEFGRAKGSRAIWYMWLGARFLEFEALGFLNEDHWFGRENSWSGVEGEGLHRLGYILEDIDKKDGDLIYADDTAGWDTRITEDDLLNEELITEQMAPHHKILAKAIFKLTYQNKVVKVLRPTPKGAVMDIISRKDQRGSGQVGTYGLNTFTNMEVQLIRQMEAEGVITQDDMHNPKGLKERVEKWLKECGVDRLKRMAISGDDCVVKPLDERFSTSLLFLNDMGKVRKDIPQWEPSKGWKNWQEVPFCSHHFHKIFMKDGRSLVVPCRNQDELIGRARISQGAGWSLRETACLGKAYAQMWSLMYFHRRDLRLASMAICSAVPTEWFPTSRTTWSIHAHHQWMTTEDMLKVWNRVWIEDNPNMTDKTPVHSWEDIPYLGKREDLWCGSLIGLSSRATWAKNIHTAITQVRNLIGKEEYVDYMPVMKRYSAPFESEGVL

B1: chimpanzee antibody 5H2 (antibody, V domains shown)
VH: EVQLLESGPGLVKPSETLSLTCTVSGGSISDFYWSWLRQSPGKGLEWIGYAHSRVSAYYNPSLKSRVTISVDTSKNQISLRLSAVTAADTALYYCARQGTGTTGVSEDSFDLWGQGTKVIVSL
VL: ELQMTQSPSSLSASVGDRVTITCRASQDISIRLNWYQQKPGKAPKLLIYDASTLESGVPSRFSGSGSGTDFTLTISSLQPEDFATYYCQQFNSYPLTFGGGTKVEIK
notes: also called mAb 5H2
Turning to B1, the binding result is on record as “binds”.

Values taken from paper PMC6553876 (PLoS Pathogens, 2019).
